Drawing on paper doi:10.1101/2021.04.26.441533 (bioRxiv, 2021), this text covers koff, kon and Kd for one molecule.

What all share (assay): single-molecule magnetic tweezers
The target of assay [1] is T1, Full-length vinculin (FL-vinculin) (UniProt P18206-2 1-1066).
T1 sequence (looked up): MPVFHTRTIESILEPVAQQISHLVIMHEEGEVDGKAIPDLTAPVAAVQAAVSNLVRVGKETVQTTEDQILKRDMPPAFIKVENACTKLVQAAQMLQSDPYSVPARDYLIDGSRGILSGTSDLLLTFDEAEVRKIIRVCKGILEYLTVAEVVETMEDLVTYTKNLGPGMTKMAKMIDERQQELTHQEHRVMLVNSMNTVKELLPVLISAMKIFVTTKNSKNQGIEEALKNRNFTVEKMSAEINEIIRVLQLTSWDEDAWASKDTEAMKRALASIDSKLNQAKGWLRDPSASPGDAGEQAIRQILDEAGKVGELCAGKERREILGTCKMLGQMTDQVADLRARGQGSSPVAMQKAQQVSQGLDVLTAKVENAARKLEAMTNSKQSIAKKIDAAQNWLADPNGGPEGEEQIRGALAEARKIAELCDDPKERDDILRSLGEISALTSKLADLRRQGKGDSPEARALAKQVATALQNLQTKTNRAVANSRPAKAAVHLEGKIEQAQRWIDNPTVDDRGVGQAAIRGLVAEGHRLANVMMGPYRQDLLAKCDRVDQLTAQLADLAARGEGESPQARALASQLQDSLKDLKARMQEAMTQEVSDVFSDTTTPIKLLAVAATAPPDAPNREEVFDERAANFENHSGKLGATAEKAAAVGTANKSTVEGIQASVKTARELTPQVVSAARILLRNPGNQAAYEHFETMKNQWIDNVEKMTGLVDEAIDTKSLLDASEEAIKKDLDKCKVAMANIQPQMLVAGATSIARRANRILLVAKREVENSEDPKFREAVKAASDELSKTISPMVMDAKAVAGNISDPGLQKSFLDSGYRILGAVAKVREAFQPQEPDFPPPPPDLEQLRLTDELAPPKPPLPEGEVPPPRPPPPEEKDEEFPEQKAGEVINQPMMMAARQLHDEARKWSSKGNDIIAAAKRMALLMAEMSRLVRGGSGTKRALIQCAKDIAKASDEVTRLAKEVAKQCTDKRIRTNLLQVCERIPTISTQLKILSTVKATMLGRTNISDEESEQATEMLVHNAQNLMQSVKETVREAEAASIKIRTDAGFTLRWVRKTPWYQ

A further assay addresses T2, vinculin T12 mutant (UniProt P18206-2 1-1066, D974A | K975A | R976A | R978A).
T2 sequence (looked up): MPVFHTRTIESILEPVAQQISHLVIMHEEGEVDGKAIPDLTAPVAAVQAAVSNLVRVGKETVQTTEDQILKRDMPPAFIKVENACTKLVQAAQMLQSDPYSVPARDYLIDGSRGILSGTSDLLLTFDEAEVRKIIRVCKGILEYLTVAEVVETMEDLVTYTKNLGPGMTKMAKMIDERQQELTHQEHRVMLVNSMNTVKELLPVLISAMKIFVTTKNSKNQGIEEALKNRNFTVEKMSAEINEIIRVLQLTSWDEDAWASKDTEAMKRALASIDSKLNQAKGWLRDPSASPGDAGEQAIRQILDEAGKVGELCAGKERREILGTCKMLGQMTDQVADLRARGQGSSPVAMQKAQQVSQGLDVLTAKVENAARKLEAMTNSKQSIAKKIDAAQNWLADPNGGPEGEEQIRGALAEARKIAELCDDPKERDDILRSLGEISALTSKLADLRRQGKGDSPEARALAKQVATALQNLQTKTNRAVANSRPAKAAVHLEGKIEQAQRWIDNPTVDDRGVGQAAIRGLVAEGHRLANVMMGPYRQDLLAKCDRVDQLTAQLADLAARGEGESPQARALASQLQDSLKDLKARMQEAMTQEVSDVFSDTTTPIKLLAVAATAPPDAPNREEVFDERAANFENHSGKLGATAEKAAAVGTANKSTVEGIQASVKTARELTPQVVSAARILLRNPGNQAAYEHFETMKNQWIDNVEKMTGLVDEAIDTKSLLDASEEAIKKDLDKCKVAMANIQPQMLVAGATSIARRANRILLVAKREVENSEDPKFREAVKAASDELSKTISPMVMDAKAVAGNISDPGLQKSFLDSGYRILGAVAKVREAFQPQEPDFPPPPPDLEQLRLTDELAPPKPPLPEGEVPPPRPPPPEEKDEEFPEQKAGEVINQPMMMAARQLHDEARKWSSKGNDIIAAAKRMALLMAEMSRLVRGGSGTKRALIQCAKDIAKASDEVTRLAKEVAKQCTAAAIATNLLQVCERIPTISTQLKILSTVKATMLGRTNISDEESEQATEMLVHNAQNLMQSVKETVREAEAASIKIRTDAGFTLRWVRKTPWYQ

The target of another assay is T3, vinculin head (D1-D4) (UniProt P18206-2 1-835).
T3 sequence (looked up): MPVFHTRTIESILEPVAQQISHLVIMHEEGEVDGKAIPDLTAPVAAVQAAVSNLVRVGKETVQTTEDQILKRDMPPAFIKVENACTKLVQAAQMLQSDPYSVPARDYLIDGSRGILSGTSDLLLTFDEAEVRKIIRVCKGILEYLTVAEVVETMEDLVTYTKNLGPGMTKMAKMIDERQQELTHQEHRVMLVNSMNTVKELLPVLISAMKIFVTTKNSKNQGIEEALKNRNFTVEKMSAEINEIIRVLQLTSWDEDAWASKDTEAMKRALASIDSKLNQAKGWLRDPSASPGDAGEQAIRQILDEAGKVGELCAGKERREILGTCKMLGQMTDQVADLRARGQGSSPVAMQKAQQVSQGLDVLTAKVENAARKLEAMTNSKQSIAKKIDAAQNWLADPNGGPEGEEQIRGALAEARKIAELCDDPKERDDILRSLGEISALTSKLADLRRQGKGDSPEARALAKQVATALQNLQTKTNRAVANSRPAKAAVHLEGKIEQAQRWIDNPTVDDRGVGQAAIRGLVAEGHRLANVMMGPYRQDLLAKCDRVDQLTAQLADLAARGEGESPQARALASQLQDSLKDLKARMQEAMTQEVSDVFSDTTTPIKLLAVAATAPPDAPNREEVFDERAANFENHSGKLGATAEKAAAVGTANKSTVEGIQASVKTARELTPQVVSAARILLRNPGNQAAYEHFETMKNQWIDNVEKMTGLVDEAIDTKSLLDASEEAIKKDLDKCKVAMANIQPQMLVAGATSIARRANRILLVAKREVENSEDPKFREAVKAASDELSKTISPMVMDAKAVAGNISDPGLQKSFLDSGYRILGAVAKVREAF

The term koff denotes the first-order rate constant of dissociation. Lower therefore signals slow dissociation. A word on the kon: it is the rate constant with which the complex forms. Low readings indicate slow association, high ones fast association. Broadly, the Kd is the free concentration of one partner at which half of the binding sites on the other are occupied at equilibrium, for simple one-to-one binding.

B1: talin R4-R6 domains (stretchable talin R4-R6 fragment) (domain or fragment, UniProt P26039 913-1357, looked up)
chain: LVQRLEHAAKQAAASATQTIAAAQHAASAPKASAGPQPLLVQSCKAVAEQIPLLVQGVRGSQAQPDSPSAQLALIAASQSFLQPGGKMVAAAKASVPTIQDQASAMQLSQCAKNLGTALAELRTAAQKAQEACGPLEMDSALSVVQNLEKDLQEIKAAARDGKLKPLPGETMEKCTQDLGNSTKAVSSAIAKLLGEIAQGNENYAGIAARDVAGGLRSLAQAARGVAALTSDPAVQAIVLDTASDVLDKASSLIEEAKKASGHPGDPESQQRLAQVAKAVTQALNRCVSCLPGQRDVDNALRAVGDASKRLLSDSLPPSTGTFQEAQSRLNEAAAGLNQAATELVQASRGTPQDLARASGRFGQDFSTFLEAGVEMAGQAPSQEDRAQVVSNLKGISMSSSKLLLAAKALSTDPASPNLKSQLAAAARAVTDSINQLITMCTQQA
modifications: N-terminus linked to a superparamagnetic bead through a 572-bp double strand DNA linker
B1: in assay [1], the dissociation rate constant (koff) worked out at 0.014 s⁻¹ and the kon came to 1e+06 M⁻¹ s⁻¹. Moreover, in the assay with vinculin T12 mutant, binding was characterised by a dissociation constant (Kd) of 1.9 nM, the koff is 0.021 s⁻¹ and the kon amounted to 1.1e+07 M⁻¹ s⁻¹. In the assay with vinculin head (D1-D4), this molecule yielded a Kd of 0.6 nM, a koff of 0.0022 s⁻¹ and a kon of 3.7e+06 M⁻¹ s⁻¹.
